Results as given in the supplement of paper PMC10567573.

B1: ZNF24 (parent)
chain: YGETCFPKGRFERKRNPSRKKQHI

Variants of: B1
Assay: protein stability index of a GFP-peptide fusion (GPS, HEK-293T) (PSI 1-6); higher = more stable
Settings: c terminus: a fixed tail appended
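Note: lentivirally expressed fusions sorted by FACS into six bins by GFP to DsRed ratio, PSI derived from sequencing read proportions per bin multiplied by bin number.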

Which protein stability index does the source give for YGETCFLKGRFERKRNPSRKKQHI here?
Its protein stability index is 1.9.

With YGETCFVKGRFERKRNPSRKKQHI as the variant, how does the protein stability index read?
Its protein stability index is 3.12.

With YGETCFHKGRFERKRNPSRKKQHI as the variant, how does the protein stability index read?
The protein stability index was 2.43.

Which protein stability index does the source give for YGETCFGKGRFERKRNPSRKKQHI here?
The protein stability index was 2.82.

For YGETCFMKGRFERKRNPSRKKQHI, which protein stability index is on record?
The protein stability index was 3.07.

Which protein stability index does the source give for YGETCFNKGRFERKRNPSRKKQHI here?
The protein stability index was 3.69.

With YGETCFPKGRNERKRNPSRKKQHI as the variant, how does the protein stability index read?
Its protein stability index is 3.33.

Which protein stability index does the source give for YGETCFPKGRMERKRNPSRKKQHI here?
Its protein stability index is 2.55.

With YGETCFPKGRCERKRNPSRKKQHI as the variant, how does the protein stability index read?
The protein stability index was 2.58.

For YGETCFPKGRDERKRNPSRKKQHI, which protein stability index is on record?
The protein stability index was 2.99.

Which protein stability index does the source give for YGETCFPKGRHERKRNPSRKKQHI here?
Its protein stability index is 3.05.

Which protein stability index does the source give for YGETCFPKGRQERKRNPSRKKQHI here?
Its protein stability index is 3.41.

Which protein stability index does the source give for YGETCFPKGRFERQRNPSRKKQHI here?
The protein stability index was 3.1.

Which protein stability index does the source give for YGETCFPKGRFERSRNPSRKKQHI here?
The protein stability index was 2.65.

Which protein stability index does the source give for YGETCFPKGRFDRKRNPSRKKQHI here?
Its protein stability index is 3.26.

With YGETCFPKGRFHRKRNPSRKKQHI as the variant, how does the protein stability index read?
The protein stability index was 3.09.

Which protein stability index does the source give for YGETCFPKGRFQRKRNPSRKKQHI here?
The protein stability index was 2.3.

With YGETCFPKGRFARKRNPSRKKQHI as the variant, how does the protein stability index read?
The protein stability index was 2.49.

Which protein stability index does the source give for YGETCFPKGRFPRKRNPSRKKQHI here?
The protein stability index was 3.11.

With YGETNFPKGRFERKRNPSRKKQHI as the variant, how does the protein stability index read?
Its protein stability index is 2.43.

For YGETEFPKGRFERKRNPSRKKQHI, which protein stability index is on record?
The protein stability index was 3.15.

With YGETYFPKGRFERKRNPSRKKQHI as the variant, how does the protein stability index read?
The protein stability index was 1.95.

For YGETDFPKGRFERKRNPSRKKQHI, which protein stability index is on record?
Its protein stability index is 2.67.

Which protein stability index does the source give for YGETPFPKGRFERKRNPSRKKQHI here?
The protein stability index was 3.61.

Which protein stability index does the source give for YGETHFPKGRFERKRNPSRKKQHI here?
The protein stability index was 3.63.

For YGETCFPYGRFERKRNPSRKKQHI, which protein stability index is on record?
Its protein stability index is 2.74.

With YGETCFPQGRFERKRNPSRKKQHI as the variant, how does the protein stability index read?
Its protein stability index is 2.13.

Which protein stability index does the source give for YGETCFPHGRFERKRNPSRKKQHI here?
Its protein stability index is 2.1.

With YGETCFPAGRFERKRNPSRKKQHI as the variant, how does the protein stability index read?
Its protein stability index is 2.17.

For YGETCFPLGRFERKRNPSRKKQHI, which protein stability index is on record?
Its protein stability index is 2.07.

Which protein stability index does the source give for YGETCFPKGRFERKRNNSRKKQHI here?
The protein stability index was 3.

For YGETCFPKGRFERKRNDSRKKQHI, which protein stability index is on record?
Its protein stability index is 3.58.

For YGETCFPKGRFERKRNVSRKKQHI, which protein stability index is on record?
Its protein stability index is 2.25.

With YGETCFPKGRFERKRNESRKKQHI as the variant, how does the protein stability index read?
Its protein stability index is 2.93.

With YGETCFPKGRFEWKRNPSRKKQHI as the variant, how does the protein stability index read?
The protein stability index was 1.75.

Which protein stability index does the source give for YGETCFPKGRFEDKRNPSRKKQHI here?
The protein stability index was 2.93.

Which protein stability index does the source give for YGELCFPKGRFERKRNPSRKKQHI here?
The protein stability index was 2.45.

Which protein stability index does the source give for YGEACFPKGRFERKRNPSRKKQHI here?
Its protein stability index is 2.96.

With YGEGCFPKGRFERKRNPSRKKQHI as the variant, how does the protein stability index read?
Its protein stability index is 2.33.

For YGETCFPKGRFERKRNPSRKKQAI, which protein stability index is on record?
The protein stability index was 2.42.

Which protein stability index does the source give for YGETCFPKGRFERKRNPSRKKQWI here?
The protein stability index was 2.3.

With YGETCFPKGRFERKRNPSRKKQNI as the variant, how does the protein stability index read?
Its protein stability index is 2.85.

With YGETCFPKGRFERKRNPSRKKQSI as the variant, how does the protein stability index read?
The protein stability index was 2.56.

For YGETCFPKGRFERKRNPSRKKQEI, which protein stability index is on record?
Its protein stability index is 2.68.

Which protein stability index does the source give for YMETCFPKGRFERKRNPSRKKQHI here?
Its protein stability index is 3.

Which protein stability index does the source give for YFETCFPKGRFERKRNPSRKKQHI here?
Its protein stability index is 2.51.

With YAETCFPKGRFERKRNPSRKKQHI as the variant, how does the protein stability index read?
The protein stability index was 2.34.

With YHETCFPKGRFERKRNPSRKKQHI as the variant, how does the protein stability index read?
Its protein stability index is 2.15.

For YGETCFPKGRFERKRNPSQKKQHI, which protein stability index is on record?
The protein stability index was 2.26.

Which protein stability index does the source give for YGETCFPKGRFERKRNPSTKKQHI here?
The protein stability index was 3.5.

For YGETCFPKGRFERKRNPSDKKQHI, which protein stability index is on record?
The protein stability index was 2.95.

With YGETCFPKGRFERKRNPSIKKQHI as the variant, how does the protein stability index read?
The protein stability index was 2.

For YGETCFPKGRFERKRNPSHKKQHI, which protein stability index is on record?
The protein stability index was 3.22.

With YGETCNPKGRFERKRNPSRKKQHI as the variant, how does the protein stability index read?
The protein stability index was 4.03.

With YGETCGPKGRFERKRNPSRKKQHI as the variant, how does the protein stability index read?
Its protein stability index is 3.8.

Which protein stability index does the source give for YGETCQPKGRFERKRNPSRKKQHI here?
The protein stability index was 4.02.

With YGETCLPKGRFERKRNPSRKKQHI as the variant, how does the protein stability index read?
Its protein stability index is 3.79.

Which protein stability index does the source give for YGETCTPKGRFERKRNPSRKKQHI here?
Its protein stability index is 4.36.

For YGRTCFPKGRFERKRNPSRKKQHI, which protein stability index is on record?
The protein stability index was 2.9.

For YGWTCFPKGRFERKRNPSRKKQHI, which protein stability index is on record?
Its protein stability index is 2.26.

For YGPTCFPKGRFERKRNPSRKKQHI, which protein stability index is on record?
The protein stability index was 2.54.

For YGMTCFPKGRFERKRNPSRKKQHI, which protein stability index is on record?
The protein stability index was 3.41.

Which protein stability index does the source give for YGFTCFPKGRFERKRNPSRKKQHI here?
Its protein stability index is 2.71.

Which protein stability index does the source give for YGETCFPKGRFERKRNPSRAKQHI here?
The protein stability index was 3.31.

With YGETCFPKGRFERKRNPSRFKQHI as the variant, how does the protein stability index read?
The protein stability index was 2.45.

With YGETCFPKGRFERKRNPSRGKQHI as the variant, how does the protein stability index read?
Its protein stability index is 3.29.

For YGETCFPKGRFERKRNPSRLKQHI, which protein stability index is on record?
The protein stability index was 2.05.

With YGETCFPKGRFERKRNPSRKKVHI as the variant, how does the protein stability index read?
The protein stability index was 2.4.

With YGETCFPKGRFERKRNPSRKKHHI as the variant, how does the protein stability index read?
The protein stability index was 2.33.

Which protein stability index does the source give for YGETCFPKGRFERKRNPSRKKRHI here?
Its protein stability index is 2.69.

With YGETCFPKGRFERKRNPSRKKEHI as the variant, how does the protein stability index read?
Its protein stability index is 3.19.

Which protein stability index does the source give for YGETCFPKGRFERKRNPSRKKAHI here?
Its protein stability index is 2.97.

For YGETCFPKGRFERKRNPSRKYQHI, which protein stability index is on record?
Its protein stability index is 3.23.

For YGETCFPKGRFERKRNPSRKGQHI, which protein stability index is on record?
Its protein stability index is 3.16.

With YGETCFPKGRFERKRNPSRKIQHI as the variant, how does the protein stability index read?
The protein stability index was 2.38.

With GGETCFPKGRFERKRNPSRKKQHI as the variant, how does the protein stability index read?
Its protein stability index is 4.63.

For NGETCFPKGRFERKRNPSRKKQHI, which protein stability index is on record?
The protein stability index was 4.4.

For EGETCFPKGRFERKRNPSRKKQHI, which protein stability index is on record?
Its protein stability index is 4.46.

Which protein stability index does the source give for WGETCFPKGRFERKRNPSRKKQHI here?
Its protein stability index is 2.6.

For TGETCFPKGRFERKRNPSRKKQHI, which protein stability index is on record?
The protein stability index was 3.6.

Which protein stability index does the source give for YGETCFPKERFERKRNPSRKKQHI here?
The protein stability index was 3.39.

Which protein stability index does the source give for YGETCFPKCRFERKRNPSRKKQHI here?
The protein stability index was 1.98.

With YGETCFPKGRFERKLNPSRKKQHI as the variant, how does the protein stability index read?
Its protein stability index is 2.76.

With YGETCFPKGRFERKKNPSRKKQHI as the variant, how does the protein stability index read?
The protein stability index was 2.03.

Which protein stability index does the source give for YGETCFPKGRFERKTNPSRKKQHI here?
Its protein stability index is 2.46.

For YGETCFPKGRFERKSNPSRKKQHI, which protein stability index is on record?
Its protein stability index is 2.79.

For YGETCFPKGRFERKRTPSRKKQHI, which protein stability index is on record?
Its protein stability index is 2.89.

Which protein stability index does the source give for YGETCFPKGRFERKRGPSRKKQHI here?
The protein stability index was 2.5.

With YGETCFPKGRFERKRNPSRKKQHA as the variant, how does the protein stability index read?
The protein stability index was 3.43.

For YGETCFPKGRFERKRNPSRKKQHE, which protein stability index is on record?
The protein stability index was 3.13.

For YGETCFPKGRFERKRNPSRKKQHK, which protein stability index is on record?
Its protein stability index is 3.22.

Which protein stability index does the source give for YGETCFPKGRFERKRNPSRKKQHN here?
Its protein stability index is 3.54.

For YGETCFPKGRFERKRNPNRKKQHI, which protein stability index is on record?
Its protein stability index is 3.87.

Which protein stability index does the source give for YGETCFPKGRFERKRNPCRKKQHI here?
Its protein stability index is 2.76.
